Assay results taken from patent publication US20250066503A1, “CELL INJURY INDUCING THERAPEUTIC DRUG FOR USE IN CANCER THERAPY” (CHUGAI SEIYAKU KABUSHIKI KAISHA, priority 2016, published 2025).

Target: T1, human GPC3 (human, UniProt P51654 25-563)
T1 construct: range 25-563; soluble analyte; also called soluble human GPC3; glypican 3
Assay: SPR

T1 sequence (P51654 25-563 limits assumed): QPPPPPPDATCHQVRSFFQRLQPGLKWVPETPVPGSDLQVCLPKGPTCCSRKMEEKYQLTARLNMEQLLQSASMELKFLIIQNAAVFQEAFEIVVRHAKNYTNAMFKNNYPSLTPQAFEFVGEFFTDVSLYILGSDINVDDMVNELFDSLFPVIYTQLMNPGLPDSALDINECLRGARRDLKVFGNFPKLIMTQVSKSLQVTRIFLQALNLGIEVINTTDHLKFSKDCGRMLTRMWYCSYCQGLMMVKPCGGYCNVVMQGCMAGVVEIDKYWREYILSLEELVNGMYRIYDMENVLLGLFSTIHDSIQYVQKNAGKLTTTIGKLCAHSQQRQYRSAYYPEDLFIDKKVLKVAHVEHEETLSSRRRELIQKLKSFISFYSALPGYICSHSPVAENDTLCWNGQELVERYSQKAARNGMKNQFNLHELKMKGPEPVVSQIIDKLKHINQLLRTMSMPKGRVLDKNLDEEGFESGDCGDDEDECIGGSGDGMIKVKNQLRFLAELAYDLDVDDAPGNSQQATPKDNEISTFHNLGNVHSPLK

| Binder | Kd [nM] |
| --- | --- |
| GCH054-G1dh/none-Hi-Kn010G3/L0262-k0 (antibody, V domains shown, one-arm) VH: QVQLVQSGAEVKKPGASVTVSCKASGYTFTDYEMHWIRQPPGEGLEWIGAIDGETPDTAYSEKFKGRVTLTADKSTSTAYMELSSLTSEDTAVYYCTRFYSYTYWGQGTLVTVSS VL: DIVMTQSPLSLPVTPGEPASISCRSSQPPVHSNRNTYLHWYQQKPGQAPRLLIYKVSNRFSGVPDRFSGSGSGTDFTLKISRVEAEDVGVYYCAQGTQVPYTFGQGTKLEIK | 0.000525 |
| GCH054-G1dh/none-Hi-Kn010G3/TR01L018-k0 (antibody, V domains shown, one-arm) VH: QVQLVQSGAEVKKPGASVTVSCKASGYTFTDYEMHWIRQPPGEGLEWIGAIDGETPDTAYSEKFKGRVTLTADKSTSTAYMELSSLTSEDTAVYYCTRFYSYTYWGQGTLVTVSS VL: DIVMTQSPLSLPVTPGEPASISCQASESPVHSNRNTYLHWYLQKPGQSPQLLIYKVSNRFSGVPDRFSGSGSGTDFTLKISRVEAEDVGVYYCGQGTQVPYTFGQGTKLEIK | 2.59 |
| GCH054-G1dh/none-Hi-Kn010G3/TR01L016-k0 (antibody, V domains shown, one-arm) VH: QVQLVQSGAEVKKPGASVTVSCKASGYTFTDYEMHWIRQPPGEGLEWIGAIDGETPDTAYSEKFKGRVTLTADKSTSTAYMELSSLTSEDTAVYYCTRFYSYTYWGQGTLVTVSS VL: DIVMTQSPLSLPVTPGEPASISCRSSQSPVHSNRNTYLHWYLQKPGQSPQLLIYKVSNRFSGVPDRFSGSGSGTDFTLKISRVEAEDVGVYYCYQGTQVPYTFGQGTKLEIK | 0.763 |
| H0610-G1dh/none-Hi-Kn010G3/L0008-k0 (antibody, V domains shown, one-arm) VH: QVQLVQSGAEVKKPGASVKVSCKASGYTFTDYEMHWIRQPPGQGLEWIGAIDGKTPDTAYSQKFKGRVTLTADKSTSTAYMELSSLTSEDTAVYYCTRFYSYTYWGQGTLVTVSS VL: DIVMTQSPLSLPVTPGEPASISCRVSQSLVHSNRNTYLHWYQQKPGQAPRLLIYKVSNRFSGVPDRFSGSGSGTDFTLKISRVEAEDVGVYYCGQGTQVPYTFGQGTKLEIK | 3.3 |
| GCH054-G1dh/none-Hi-Kn010G3/TR01L015-k0 (antibody, V domains shown, one-arm) VH: QVQLVQSGAEVKKPGASVTVSCKASGYTFTDYEMHWIRQPPGEGLEWIGAIDGETPDTAYSEKFKGRVTLTADKSTSTAYMELSSLTSEDTAVYYCTRFYSYTYWGQGTLVTVSS VL: DIVMTQSPLSLPVTPGEPASISCRSSQSPVHSNRNTYLHWYLQKPGQSPQLLIYKVSNRFSGVPDRFSGSGSGTDFTLKISRVEAEDVGVYYCGQGTQVPYTFGQGTKLEIK | 2.45 |
| H0610-G1dh/none-Hi-Kn010G3/L0006-k0 (antibody, V domains shown, one-arm) VH: QVQLVQSGAEVKKPGASVKVSCKASGYTFTDYEMHWIRQPPGQGLEWIGAIDGKTPDTAYSQKFKGRVTLTADKSTSTAYMELSSLTSEDTAVYYCTRFYSYTYWGQGTLVTVSS VL: DIVMTQSPLSLPVTPGEPASISCRPSQSLVHSNRNTYLHWYQQKPGQAPRLLIYKVSNRFSGVPDRFSGSGSGTDFTLKISRVEAEDVGVYYCGQGTQVPYTFGQGTKLEIK | 3.04 |
| H0610-G1dh/none-Hi-Kn010G3/L0002-k0 (antibody, V domains shown, one-arm) VH: QVQLVQSGAEVKKPGASVKVSCKASGYTFTDYEMHWIRQPPGQGLEWIGAIDGKTPDTAYSQKFKGRVTLTADKSTSTAYMELSSLTSEDTAVYYCTRFYSYTYWGQGTLVTVSS VL: DIVMTQSPLSLPVTPGEPASISCRASQSLVHSNRNTYLHWYQQKPGQAPRLLIYKVSNRFSGVPDRFSGSGSGTDFTLKISRVEAEDVGVYYCGQGTQVPYTFGQGTKLEIK | 4.43 |
| GCH056-G1dh/none-Hi-Kn010G3/L0215-k0 (antibody, V domains shown, one-arm) VH: QVQLVQSGAEVKKPGASVTVSCKASGYTFTDYEMHWIRQPPGEGLEWIGAIDGETPDTAYSQKFEGRVTLTADKSTSTAYMELSSLTSEDTAVYYCTRFYSYTYWGQGTLVTVSS VL: DIVMTQSPLSLPVTPGEPASISCRSSQPPVHSNRNTYIHWYQQKPGQAPRLLIYKVSNRFSGVPDRFSGSGSGTDFTLKISRVEAEDVGVYYCGQGTQVPYTFGQGTKLEIK | 1.59 |
| GCH055-G1dh/none-Hi-Kn010G3/L0215-k0 (antibody, V domains shown, one-arm) VH: QVQLVQSGAEVKKPGASVTVSCKASGYTFTDYEMHWIRQPPGEGLEWIGAIDGETPDTAYSDKFKGRVTLTADKSTSTAYMELSSLTSEDTAVYYCTRFYSYTYWGQGTLVTVSS VL: DIVMTQSPLSLPVTPGEPASISCRSSQPPVHSNRNTYIHWYQQKPGQAPRLLIYKVSNRFSGVPDRFSGSGSGTDFTLKISRVEAEDVGVYYCGQGTQVPYTFGQGTKLEIK | 1.52 |
| GCH057-G1dh/none-Hi-Kn010G3/L0215-k0 (antibody, V domains shown, one-arm) VH: QVQLVQSGAEVKKPGASVTVSCKASGYTFTDYEMHWIRQPPGEGLEWIGAIDGETPDTAYSEKFEGRVTLTADKSTSTAYMELSSLTSEDTAVYYCTRFYSYTYWGQGTLVTVSS VL: DIVMTQSPLSLPVTPGEPASISCRSSQPPVHSNRNTYIHWYQQKPGQAPRLLIYKVSNRFSGVPDRFSGSGSGTDFTLKISRVEAEDVGVYYCGQGTQVPYTFGQGTKLEIK | 1.83 |
| H0610-G1dh/none-Hi-Kn010G3/L0007-k0 (antibody, V domains shown, one-arm) VH: QVQLVQSGAEVKKPGASVKVSCKASGYTFTDYEMHWIRQPPGQGLEWIGAIDGKTPDTAYSQKFKGRVTLTADKSTSTAYMELSSLTSEDTAVYYCTRFYSYTYWGQGTLVTVSS VL: DIVMTQSPLSLPVTPGEPASISCRTSQSLVHSNRNTYLHWYQQKPGQAPRLLIYKVSNRFSGVPDRFSGSGSGTDFTLKISRVEAEDVGVYYCGQGTQVPYTFGQGTKLEIK | 4.39 |
| GCH054-G1dh/none-Hi-Kn010G3/TR01L019-k0 (antibody, V domains shown, one-arm) VH: QVQLVQSGAEVKKPGASVTVSCKASGYTFTDYEMHWIRQPPGEGLEWIGAIDGETPDTAYSEKFKGRVTLTADKSTSTAYMELSSLTSEDTAVYYCTRFYSYTYWGQGTLVTVSS VL: DIVMTQSPLSLPVTPGEPASISCQASESPVHSNRNTYLHWYLQKPGQSPQLLIYKVSNRFSGVPDRFSGSGSGTDFTLKISRVEAEDVGVYYCYQGTQVPYTFGQGTKLEIK | 0.871 |
| H0610-G1dh/none-Hi-Kn010G3/L0003-k0 (antibody, V domains shown, one-arm) VH: QVQLVQSGAEVKKPGASVKVSCKASGYTFTDYEMHWIRQPPGQGLEWIGAIDGKTPDTAYSQKFKGRVTLTADKSTSTAYMELSSLTSEDTAVYYCTRFYSYTYWGQGTLVTVSS VL: DIVMTQSPLSLPVTPGEPASISCRISQSLVHSNRNTYLHWYQQKPGQAPRLLIYKVSNRFSGVPDRFSGSGSGTDFTLKISRVEAEDVGVYYCGQGTQVPYTFGQGTKLEIK | 4.01 |
| GCH055-G1dh/none-Hi-Kn010G3/L0200-k0 (antibody, V domains shown, one-arm) VH: QVQLVQSGAEVKKPGASVTVSCKASGYTFTDYEMHWIRQPPGEGLEWIGAIDGETPDTAYSDKFKGRVTLTADKSTSTAYMELSSLTSEDTAVYYCTRFYSYTYWGQGTLVTVSS VL: DIVMTQSPLSLPVTPGEPASISCRPSQSPVHSNRNTYLHWYQQKPGQAPRLLIYKVSNRFSGVPDRFSGSGSGTDFTLKISRVEAEDVGVYYCGQGTQVPYTFGQGTKLEIK | 1.13 |
| GCH056-G1dh/none-Hi-Kn010G3/L0262-k0 (antibody, V domains shown, one-arm) VH: QVQLVQSGAEVKKPGASVTVSCKASGYTFTDYEMHWIRQPPGEGLEWIGAIDGETPDTAYSQKFEGRVTLTADKSTSTAYMELSSLTSEDTAVYYCTRFYSYTYWGQGTLVTVSS VL: DIVMTQSPLSLPVTPGEPASISCRSSQPPVHSNRNTYLHWYQQKPGQAPRLLIYKVSNRFSGVPDRFSGSGSGTDFTLKISRVEAEDVGVYYCAQGTQVPYTFGQGTKLEIK | 0.0119 |

Continued, values first:

| Kd [nM] | Binder |
| --- | --- |
| 0.692 | GCH094-G1dh/none-Hi-Kn010G3/L0271-k0 (antibody, V domains shown, one-arm) VH: QVQLVQSGAEVKKPGASVTVSCKASGYTFTDYEMHWVRQAPGEGLEWMGAIDGETPDTAYSEKFKGRVTLTADKSTSTAYMELSSLTSEDTAVYYCTRFYSYTYWGQGTLVTVSS VL: DIVMTQSPLSLPVTPGEPASISCRSSQPPVHSNRQTYLHWYQQKPGQAPRLLIYKVSNRFSGVPDRFSGSGSGTDFTLKISRVEAEDVGVYYCGQGTQVPYTFGQGTKLEIK |
| 1.34 | GCH060-G1dh/none-Hi-Kn010G3/L0200-k0 (antibody, V domains shown, one-arm) VH: QVQLVQSGAEVKKPGASVTVSCKASGYTFEDYEMHWIRQPPGEGLEWIGAIDGETPDTAYSQKFEGRVTLTADKSTSTAYMELSSLTEEDTAVYYCTRFYSYTYWGQGTLVTVSS VL: DIVMTQSPLSLPVTPGEPASISCRPSQSPVHSNRNTYLHWYQQKPGQAPRLLIYKVSNRFSGVPDRFSGSGSGTDFTLKISRVEAEDVGVYYCGQGTQVPYTFGQGTKLEIK |
| 0.00412 | GCH094-G1dh/none-Hi-Kn010G3/L0246-k0 (antibody, V domains shown, one-arm) VH: QVQLVQSGAEVKKPGASVTVSCKASGYTFTDYEMHWVRQAPGEGLEWMGAIDGETPDTAYSEKFKGRVTLTADKSTSTAYMELSSLTSEDTAVYYCTRFYSYTYWGQGTLVTVSS VL: DIVMTQSPLSLPVTPGEPASISCRSSQSPVHSNRNTYIQWYQQKPGQAPRLLIYKVSNRFSGVPDRFSGSGSGTDFTLKISRVEAEDVGVYYCSQGTQVPYTFGQGTKLEIK |
| 0.0118 | GCH065-G1dh/none-Hi-Kn010G3/L0262-k0 (antibody, V domains shown, one-arm) VH: QVQLVQSGAEVKKPGASVTVSCKASGYTFTDYEMHWIRQPPGEGLEWIGAIDGPTPDTAYSEKFKGRVTLTADKSTSTAYMELSSLTSEDTAVYYCTRFYSYTYWGQGTLVTVSS VL: DIVMTQSPLSLPVTPGEPASISCRSSQPPVHSNRNTYLHWYQQKPGQAPRLLIYKVSNRFSGVPDRFSGSGSGTDFTLKISRVEAEDVGVYYCAQGTQVPYTFGQGTKLEIK |
| 0.393 | GCH065-G1dh/none-Hi-Kn010G3/L0272-k0 (antibody, V domains shown, one-arm) VH: QVQLVQSGAEVKKPGASVTVSCKASGYTFTDYEMHWIRQPPGEGLEWIGAIDGPTPDTAYSEKFKGRVTLTADKSTSTAYMELSSLTSEDTAVYYCTRFYSYTYWGQGTLVTVSS VL: DIVMTQSPLSLPVTPGEPASISCRSSQPLVHSNRQTYLHWYQQKPGQAPRLLIYKVSNRFSGVPDRFSGSGSGTDFTLKISRVEAEDVGVYYCGQGTQVPYTFGQGTKLEIK |
| 3.6 | GCH094-G1dh/none-Hi-Kn010G3/L0270-k0 (antibody, V domains shown, one-arm) VH: QVQLVQSGAEVKKPGASVTVSCKASGYTFTDYEMHWVRQAPGEGLEWMGAIDGETPDTAYSEKFKGRVTLTADKSTSTAYMELSSLTSEDTAVYYCTRFYSYTYWGQGTLVTVSS VL: DIVMTQSPLSLPVTPGEPASISCRSSQSLVHSNRQTYLHWYQQKPGQAPRLLIYKVSNRFSGVPDRFSGSGSGTDFTLKISRVEAEDVGVYYCGQGTQVPYTFGQGTKLEIK |
| 2.1 | GCH094-G1dh/none-Hi-Kn010G3/L0272-k0 (antibody, V domains shown, one-arm) VH: QVQLVQSGAEVKKPGASVTVSCKASGYTFTDYEMHWVRQAPGEGLEWMGAIDGETPDTAYSEKFKGRVTLTADKSTSTAYMELSSLTSEDTAVYYCTRFYSYTYWGQGTLVTVSS VL: DIVMTQSPLSLPVTPGEPASISCRSSQPLVHSNRQTYLHWYQQKPGQAPRLLIYKVSNRFSGVPDRFSGSGSGTDFTLKISRVEAEDVGVYYCGQGTQVPYTFGQGTKLEIK |
